Test [1] has as its target T1, human IL-17RC, x1 splice variant, on transfected cells (human, UniProt Q8NAC3 21-791).
T1 sequence: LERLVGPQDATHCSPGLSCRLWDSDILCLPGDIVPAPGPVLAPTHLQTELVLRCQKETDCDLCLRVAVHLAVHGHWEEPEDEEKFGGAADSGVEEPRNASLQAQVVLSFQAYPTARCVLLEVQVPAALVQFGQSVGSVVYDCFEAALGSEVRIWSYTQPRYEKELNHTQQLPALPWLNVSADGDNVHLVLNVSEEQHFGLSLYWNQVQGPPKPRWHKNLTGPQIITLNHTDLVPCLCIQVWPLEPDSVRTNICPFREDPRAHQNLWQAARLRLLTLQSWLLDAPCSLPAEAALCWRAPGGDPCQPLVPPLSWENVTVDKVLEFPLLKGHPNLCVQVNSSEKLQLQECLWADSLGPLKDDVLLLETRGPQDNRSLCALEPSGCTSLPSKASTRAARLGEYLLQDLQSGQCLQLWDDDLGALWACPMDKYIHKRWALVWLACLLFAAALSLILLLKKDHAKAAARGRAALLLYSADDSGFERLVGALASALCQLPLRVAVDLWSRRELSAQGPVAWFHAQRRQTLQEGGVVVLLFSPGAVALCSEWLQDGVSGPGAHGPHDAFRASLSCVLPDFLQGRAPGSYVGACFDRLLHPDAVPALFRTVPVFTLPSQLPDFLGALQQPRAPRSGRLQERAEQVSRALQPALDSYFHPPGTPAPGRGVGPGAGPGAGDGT
The experiment in a line: cell-based or functional assay.

Another test has as its target T2, murine IL-17RA-Ig (mouse, UniProt Q60943 32-322).
T2 construct: also called mL-17RA-Ig; mIL-17RA-Fc; not shown: Ig/Fc part
T2 sequence (looked up): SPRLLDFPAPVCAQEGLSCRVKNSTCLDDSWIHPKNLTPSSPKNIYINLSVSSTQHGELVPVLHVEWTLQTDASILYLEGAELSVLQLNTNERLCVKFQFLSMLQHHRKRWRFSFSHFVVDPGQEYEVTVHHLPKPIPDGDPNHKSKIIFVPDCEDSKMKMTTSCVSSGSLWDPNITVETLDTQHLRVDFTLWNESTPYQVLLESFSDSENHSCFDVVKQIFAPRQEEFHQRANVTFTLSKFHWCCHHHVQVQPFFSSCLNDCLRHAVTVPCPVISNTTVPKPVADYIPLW
The experiment in a line: Biacore, soluble receptor captured on chip, cytokine as analyte. A general note: Surface plasmon resonance follows binding to a sensor surface in real time, without labels.

Test [2] deals with T3, human IL-17RC, x4 splice variant, on transfected cells (human, UniProt Q8NAC3 21-791).
T3 construct: Expressed on 293F, BHK or NIH3T3 cells; also called hIL-17RCx4; hIL-17RCX4
T3 sequence: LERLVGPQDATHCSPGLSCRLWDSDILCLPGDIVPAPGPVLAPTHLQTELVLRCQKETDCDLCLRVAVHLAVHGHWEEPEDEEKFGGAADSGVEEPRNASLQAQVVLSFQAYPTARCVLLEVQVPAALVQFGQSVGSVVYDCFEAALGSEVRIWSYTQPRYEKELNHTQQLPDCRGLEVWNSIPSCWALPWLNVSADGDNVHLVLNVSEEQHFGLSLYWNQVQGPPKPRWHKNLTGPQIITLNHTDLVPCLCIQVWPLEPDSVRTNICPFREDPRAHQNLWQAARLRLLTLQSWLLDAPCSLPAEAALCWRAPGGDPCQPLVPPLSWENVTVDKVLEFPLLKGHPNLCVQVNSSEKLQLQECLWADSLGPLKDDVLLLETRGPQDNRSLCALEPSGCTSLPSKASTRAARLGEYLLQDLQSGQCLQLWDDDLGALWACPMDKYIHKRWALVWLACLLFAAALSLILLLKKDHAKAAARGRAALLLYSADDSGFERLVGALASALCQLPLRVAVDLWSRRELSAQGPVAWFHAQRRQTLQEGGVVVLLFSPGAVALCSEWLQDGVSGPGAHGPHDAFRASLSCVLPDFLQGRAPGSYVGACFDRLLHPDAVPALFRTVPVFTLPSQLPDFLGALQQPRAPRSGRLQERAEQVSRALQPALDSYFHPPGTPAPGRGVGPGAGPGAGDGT
The experiment in a line: FACS, biotinylated cytokine on transiently transfected 293F cells. An excerpt: (§1) However, the other splice variants tested either included or excluded hIL-17RC exon 12. These variants were designated hIL-17RCx1 (identical in exon composition to mouse x1 above), hIL-17RCx4 (identical in exon composition to mouse x4 above), hIL-17RCx2, and hIL-17RCx7.
For orientation: A flow cytometer gives signals particle by particle.

Test [3] deals with T1, human IL-17RC, x1 splice variant, on …. Described as above.
From the text: as §1

For test [4], the target named is single chain human IL17A:IL17F heterodimer (human). The experiment in a line: cell-based or functional assay.
The target in test [5] is T4, human IL-17F (human, UniProt Q96PD4 31-163).
T4 sequence: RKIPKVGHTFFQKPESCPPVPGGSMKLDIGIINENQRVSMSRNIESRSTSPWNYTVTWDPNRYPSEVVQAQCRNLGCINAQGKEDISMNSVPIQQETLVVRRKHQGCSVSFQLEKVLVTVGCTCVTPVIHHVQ
The experiment in a line: cell-based or functional assay.

The target of test [6] is T5, IL17A-CH6/IL17F-CEE 2 chain heterodimer (human, UniProt Q16552 24-155; Q96PD4 31-163).
T5 sequence 1: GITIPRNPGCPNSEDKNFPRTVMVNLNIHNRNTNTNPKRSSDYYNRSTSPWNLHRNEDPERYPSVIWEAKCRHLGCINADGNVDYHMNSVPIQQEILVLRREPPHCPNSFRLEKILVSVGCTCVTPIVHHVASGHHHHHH
T5 sequence 2: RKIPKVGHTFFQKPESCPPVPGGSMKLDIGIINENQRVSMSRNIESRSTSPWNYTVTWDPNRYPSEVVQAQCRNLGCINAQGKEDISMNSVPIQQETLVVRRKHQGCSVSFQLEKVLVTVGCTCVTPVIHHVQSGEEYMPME
Nature of the test: cell-based or functional assay.

Test [7] deals with T6, human IL-17A (human, UniProt Q16552 24-155).
T6 sequence: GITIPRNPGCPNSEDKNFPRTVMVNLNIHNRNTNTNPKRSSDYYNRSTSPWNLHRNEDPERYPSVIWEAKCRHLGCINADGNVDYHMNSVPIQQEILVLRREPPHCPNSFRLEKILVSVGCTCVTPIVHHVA
Nature of the test: cell-based or functional assay.

For test [8], the target named is T4, human IL-17F. Nature of the test: cell-based or functional assay. The source holds these as a separate data set.
The target in test [9] is T6, human IL-17A. The experiment in a line: cell-based or functional assay. This is another data set of the same source.
In test [10] the target is T4, human IL-17F. Nature of the test: Biacore, summary of Table 11. An excerpt:
(§2) The protocol was optimized to capture receptor at a theoretical binding max. before injecting a concentration series of each ligand to observe association and dissociation. […] The surface was regenerated with 2×30 sec. injections of pH 1.75 glycine between cycles.

In test [11] the target is T6, human IL-17A. The experiment in a line: Biacore, summary of Table 11.
From the text: as §2

Test [12] has as its target T5, IL17A-CH6/IL17F-CEE 2 chain heterodimer. Nature of the test: Biacore T100, receptor captured by anti-human IgG Fc-gamma on CM4 chip; KD1 of the bivalent analyte model. On the procedure: (§3) The binding kinetics and affinity study was performed on a Biacore T100™ system (GE Healthcare, Piscataway, N.J.). Methods for the Biacore T100™ were programmed using Biacore T100™ Control Software, v 1.1.1. […] The capture antibody was covalently immobilized to a CM4 sensor chip using a mixture of 0.4 M EDC [N-ethyl-N′-(3-[…])carbodiimide] and 0.1 M NHS (N-hydroxysuccinimide) to a density of approximately 4000 RU. […] Capture of the receptor to the immobilized surface was performed at a flow rate of 10 μL/min. The Biacore instrument measures the mass of protein bound to the sensor chip surface, and thus, capture of the soluble receptor was verified for each analysis cycle.
(§4) Between analysis cycles, the flow cell was washed with 20 mM hydrochloric acid to regenerate the surface. […] Data was compiled using the Biacore T100™ Evaluation software (version 1.1.1). Data was processed by subtracting reference flow cell and blank injections. Baseline stability was assessed to ensure that the regeneration step provided a consistent binding surface throughout the sequence of injections. Duplicate injection curves were checked for reproducibility. […] If only one portion of the heterodimer binds to the receptor, a simple 1:1 binding model would be appropriate and the curves should fit well to this model. […]

For test [13] the target is unchanged. Nature of the test: Biacore T100, receptor captured by anti-human IgG Fc-gamma on CM4 chip; KA1 of the bivalent analyte model. On the procedure:
as §3, §4

The target of test [14] is T4, human IL-17F. The experiment in a line: Biacore, receptor captured by anti-human IgG Fc on CM5 chip, ligand as analyte.
From the text: as §2

Test [15] concerns the target T6, human IL-17A. The test is described as above.
From the text: as §2

Test [16] has as its target T5, IL17A-CH6/IL17F-CEE 2 chain heterodimer. The experiment in a line: Biacore T100, receptor captured by anti-human IgG Fc-gamma on CM4 chip; ka1 of the bivalent analyte model. Here is the method: as §3, §4
Test [17] shares this target. The experiment in a line: Biacore T100, receptor captured by anti-human IgG Fc-gamma on CM4 chip; kd1 of the bivalent analyte model. On the procedure:
as §3, §4

“And” between values parts separate entries of the source, which are not always exact repeats. Equal values may be shown once.

B1: murine IL-17A (ligand)
chain: AAIIPQSSACPNTEAKDFLQNVKVNLKVFNSLGAKVSSRRPSDYLNRSTSPWTLHRNEDPDRYPSVIWEAQCRHQRCVNAEGKLDHHMNSVLIQQEILVLKREPESCPFTFRVEKMLVGVGCTCVASIVRQAA
notes: also called mIL-17A; mIL17A
Turning to B1, the “EC50, luciferase in nih3t3/kz142.8/hcytor14x1 cells” value in [1] was around 0.004 µg/mL. Further, the Kd with murine IL-17RA-Ig is 0.069 nM and 0.072 nM. Further, the binding result in [2] and in test [3] was “no binding” in each case.

B2: Variant 1454, soluble IL-17RC/IL-17RA polypeptide fused to Fc5 (Fc fusion)
chain: LRLLDHRALVCSQPGLNCTVKNSTCLDDSWIHPRNLTPSSPKDLQIQLHFAHTQQGDLFPVAHIEWTLQTDASILYLEGAELSVLQLNTNERLCVRFEFLSKLRHHHRRWRFTFSHFVVDPDQEYEVTVHHLPKPIPDGDPNHQSKNFLVPDCEHARMKVTTPCMSSALPWLNVSADGDNVHLVLNVSEEQHFGLSLYWNQVQGPPKPRWHKNLTGPQIITLNHTDLVPCLCIQVWPLEPDSVRTNICPFREDPRAHQNLWQAARLRLLTLQSWLLDAPCSLPAEAALCWRAPGGDPCQPLVPPLSWENVTVDKVLEFPLLKGHPNLCVQVNSSEKLQLQECLWADSLGPLKDDVLLLETRGPQDNRSLCALEPSGCTSLPSKASTRAARLGEYLLQDLQSGQCLQLWDDDLGALWACPMDKYIHKEPKSSDKTHTCPPCPAPEAEGAPSVFLFPPKPKDTLMISRTPEVTCVVVDVSHEDPEVKFNWYVDGVEVHNAKTKPREEQYNSTYRVVSVLTVLHQDWLNGKEYKCKVSNKALPSSIEKTISKAKGQPREPQVYTLPPSRDELTKNQVSLTCLVKGFYPSDIAVEWESNGQPENNYKTTPPVLDSDGSFFLYSKLTVDKSRWQQGNVFSCSVMHEALHNHYTQKSLSLSPGK
notes: also called IL-17RA/RC-Fc5; IL17RA/RC 1454
In the case of B2, the “IC50, NIH-3T3/KZ170 luciferase reporter neutralization assay” value is 13.3 nM in test [4], 0.874 nM with human IL-17F [5], 3.17 nM in test [6] and 0.167 nM with human IL-17A [7]. Besides, the “IC50, luciferase in hIL-17RA/NIH3T3/KZ142.8 cells, 20 ng/ml IL-17F” value with human IL-17F [5] worked out at 0.48 µg/mL. Besides, the “IC50, luciferase in hIL-17RCX4/NIH3T3/KZ142.8 cells, 1 ng/ml IL-17F” value in the test with human IL-17F [5] is 0.8 µg/mL. Besides, the “IC50, luciferase in hIL-17RA/NIH3T3/KZ142.8 cells, 0.5 ng/ml IL-17A” value in the test with human IL-17A [7] came out at 0.001 µg/mL. Moreover, in the test with human IL-17F [8], the “IC50, huIL-17F(50 ng/ml) induction of G-CSF in SAEC” value worked out at 1.2 µg/mL. The “IC50, huIL-17F(50 ng/ml) induction of IL-8 in SAEC” value in the test with human IL-17F [8] was 0.57 µg/mL. In addition, in the test with human IL-17A [9], the “IC50, huIL-17A(10 ng/ml) induction of G-CSF in SAEC” value was found to be 0.14 µg/mL. In the test with human IL-17A [9], the “IC50, huIL-17A(10 ng/ml) induction of IL-8 in SAEC” value was 0.03 µg/mL. Further, the Kd in the test with human IL-17F [10] is around 0.14 nM; with human IL-17A [11], around 0.04 nM; in test [12], 4 nM; with human IL-17F [14], 0.143 nM and 0.126 nM; in the test with human IL-17A [15] it was 0.0439 nM and 0.0382 nM. In test [13], this molecule came in with a Ka of 2e+08 M⁻¹. Also, the koff (usually a measure of how fast the partners let go of each other) is 0.000261 s⁻¹ and 0.000315 s⁻¹ with human IL-17F [14]; 6.22e-05 s⁻¹ and 9.95e-05 s⁻¹ with human IL-17A [15]; 0.002 s⁻¹ in [17]. Also, the kon – broadly, the rate constant with which the complex forms – with human IL-17F [14] is 1.82e+06 M⁻¹ s⁻¹ and 2.49e+06 M⁻¹ s⁻¹; with human IL-17A [15], 1.42e+06 M⁻¹ s⁻¹ and 2.61e+06 M⁻¹ s⁻¹; in test [16], 500000 M⁻¹ s⁻¹.

The values above are taken from patent US20110014656A1 (ZymoGenetics, published 2011).
